Values belong to the molecule of their own block, whether it stands above or below them. Ends that are not written are not given here.
Experiments:
hERα-LBD = target: T1, hERα-LBD (Homo sapiens, UniProt P03372); test: Electrophoretic mobility shift assay with purified hERα-LBD; format: binding; details: 2-fold or 10-fold molar excess of peptide, 6% native PAGE
T1 construct: made in house; host or cells: E. coli BL21(DE3)pLysS
T1 sequence (P03372 297-554): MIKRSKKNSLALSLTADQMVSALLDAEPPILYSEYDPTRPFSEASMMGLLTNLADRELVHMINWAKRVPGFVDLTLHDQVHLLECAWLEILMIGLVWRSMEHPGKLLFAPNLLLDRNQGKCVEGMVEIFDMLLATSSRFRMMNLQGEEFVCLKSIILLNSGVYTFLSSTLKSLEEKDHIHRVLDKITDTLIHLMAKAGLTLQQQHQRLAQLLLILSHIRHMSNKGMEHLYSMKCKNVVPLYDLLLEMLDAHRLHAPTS
Description: An electrophoretic mobility shift assay was used to directly assess the ability of the NR-box 2 peptide to bind the purified ERα LBD in the presence of either DES or OHT. Eight microgram samples of purified hERα-LBD bound to either DES or OHT were incubated in the absence of the peptide, i.e., buffer alone, or in the presence of either a 2-fold or 10-fold molar excess of the GRIP1 NR-box 2 peptide. The binding reactions were performed on ice for 45 minutes in 10 μl of buffer containing 20 mM Tris, pH 8.1, 1 mM DTT, and 200 mM NaCl and then subjected to 6% native PAGE. Gels were stained with GELCODE Blue Stain reagent (Pierce).

hTRβ LBD [1] = target: T2, hTRβ LBD (Homo sapiens, UniProt P10828); test: Peptide competition of GRIP1 (563-767) interaction with hTRβ LBD; format: binding; parameters: made in house; host or cells: TR LBD: in vitro translation (reticulocyte lysate); GST-GRIP1 fragment: E. coli HB101
T2 sequence (P10828 202-461): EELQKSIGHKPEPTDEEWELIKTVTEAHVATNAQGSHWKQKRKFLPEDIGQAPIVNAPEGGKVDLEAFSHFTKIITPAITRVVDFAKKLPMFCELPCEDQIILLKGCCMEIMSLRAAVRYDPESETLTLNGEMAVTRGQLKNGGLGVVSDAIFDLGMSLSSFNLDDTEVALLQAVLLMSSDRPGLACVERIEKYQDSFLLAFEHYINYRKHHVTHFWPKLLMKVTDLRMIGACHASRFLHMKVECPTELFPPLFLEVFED
Description: (§1) For in vitro binding studies GR, TR and their derivatives were translated in the presence of [^35S]methionine using the TNT Coupled Reticulocyte System (Promega). Separate translations were performed in the presence and absence of 10 μM dexamethasone or 1 μM RU486 for GR and 10 μM triiodothyronine for TR. Expression was quantified by phosphoimager analysis (BAS2000, Fuji). For all binding assays 50 μl of a 20% bead suspension containing either 1.6 or 4.0 μM bound purified GST GRIP1 fragment (either 568-767 or 563-1121) was incubated with 0.2 μl or 1.4 μl in vitro transcribed and translated TR or GR, respectively. Binding was performed in the binding buffer described above supplemented with 20 μg/ml BSA and appropriate hormone. The chosen GST GRIP1 fragment concentrations were sufficient to bind either 70 or 100% of the TR derivatives. The reaction was incubated at 4° C. under rotation for 2 hours. In case of competition experiments, the appropriate concentration of peptides were added to the reaction before addition of receptors. However, no differences in the results were noted by adding the peptides after half of the incubation of the GST GRIP1 fragment with nuclear receptors. […] Beads were washed five times with 200 μl binding buffer+BSA at 4° C. before elution of the bound proteins in 20 μl SDS loading buffer. Eluted beads and input labeled protein were subjected to SDS-PAGE. The fraction of bound nuclear receptors was determined by phosphoimager analysis.

GR = test: GST-GRIP1 fragment pull-down of GR; format: binding
Description: as §1

hTRβ LBD [2] = target: T2, hTRβ LBD; test: GST-GRIP1 fragment pull-down of TR; format: binding; parameters: made in house; host or cells: in vitro translation (TNT Coupled Reticulocyte System, Promega)
Description: For in vitro binding studies GR, TR and their derivatives were translated in the presence of [^35S]methionine using the TNT Coupled Reticulocyte System (Promega). Separate translations were performed in the presence and absence of 10 μM dexamethasone or 1 μM RU486 for GR and 10 μM triiodothyronine for TR. Expression was quantified by phosphoimager analysis (BAS2000, Fuji). For all binding assays 50 μl of a 20% bead suspension containing either 1.6 or 4.0 μM bound purified GST GRIP1 fragment (either 568-767 or 563-1121) was incubated with 0.2 μl or 1.4 μl in vitro transcribed and translated TR or GR, respectively. Binding was performed in the binding buffer described above supplemented with 20 μg/ml BSA and appropriate hormone. The chosen GST GRIP1 fragment concentrations were sufficient to bind either 70 or 100% of the TR derivatives. The reaction was incubated at 4° C. under rotation for 2 hours. In case of competition experiments, the appropriate concentration of peptides were added to the reaction before addition of receptors. However, no differences in the results were noted by adding the peptides after half of the incubation of the GST GRIP1 fragment with nuclear receptors. […] The fraction of bound nuclear receptors was determined by phosphoimager analysis.

hERα V376R mutant = target: T3, hERα V376R mutant (Homo sapiens, UniProt P03372, V376R); test: In vitro binding of [35S]-labeled hERα mutant to GST-GRIP1; details: percentage of WT hERα
T3 construct: expression vector encoding full-length hERα, pSG5-er HEGO (WT or mutants); made in house; host or cells: hERα: in vitro translation implied by the [35S] label; GST-GRIP1: E. coli HB101
T3 sequence (P03372 1-595 V376R): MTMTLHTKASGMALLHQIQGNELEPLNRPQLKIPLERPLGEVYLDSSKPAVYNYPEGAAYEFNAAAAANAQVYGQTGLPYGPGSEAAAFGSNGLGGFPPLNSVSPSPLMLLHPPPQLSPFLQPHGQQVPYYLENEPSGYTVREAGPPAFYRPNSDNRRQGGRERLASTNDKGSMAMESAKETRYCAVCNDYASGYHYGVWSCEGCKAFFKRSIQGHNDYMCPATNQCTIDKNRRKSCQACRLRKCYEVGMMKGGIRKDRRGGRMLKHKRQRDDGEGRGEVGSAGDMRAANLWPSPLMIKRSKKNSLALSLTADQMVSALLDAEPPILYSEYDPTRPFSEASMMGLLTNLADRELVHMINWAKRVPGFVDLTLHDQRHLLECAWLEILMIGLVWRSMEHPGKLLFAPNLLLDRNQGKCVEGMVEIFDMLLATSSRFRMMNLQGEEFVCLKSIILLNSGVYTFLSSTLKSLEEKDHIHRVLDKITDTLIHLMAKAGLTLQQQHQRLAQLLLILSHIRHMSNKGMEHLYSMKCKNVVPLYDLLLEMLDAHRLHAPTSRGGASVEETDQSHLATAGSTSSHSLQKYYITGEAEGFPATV
Description: Beads were washed 3 times with 1 ml of binding buffer and the bound proteins were separated using 10% SDS-PAGE and visualized by autoradiography. Binding was quantitated by phosphorimaging using ImageQuant (Molecular Dynamics).

TAFII31 = target: T4, TAFII31 (Homo sapiens, UniProt Q16594); test: GRIP1 interaction with TAFII31; format: binding; details: data not shown
T4 sequence (Q16594 1-264): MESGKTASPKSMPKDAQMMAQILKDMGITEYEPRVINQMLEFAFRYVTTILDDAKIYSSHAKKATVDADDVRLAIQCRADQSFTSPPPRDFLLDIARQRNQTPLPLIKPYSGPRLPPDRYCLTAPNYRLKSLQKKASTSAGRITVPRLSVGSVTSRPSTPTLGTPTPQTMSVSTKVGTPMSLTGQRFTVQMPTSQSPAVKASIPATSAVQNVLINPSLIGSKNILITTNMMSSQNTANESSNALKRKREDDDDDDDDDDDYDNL

MDM2 = MDM2 (Homo sapiens, UniProt Q00987); test: GRIP1 interaction with MDM2; format: binding; details: data not shown
Sequence of MDM2 (Q00987 whole entry, species assumed): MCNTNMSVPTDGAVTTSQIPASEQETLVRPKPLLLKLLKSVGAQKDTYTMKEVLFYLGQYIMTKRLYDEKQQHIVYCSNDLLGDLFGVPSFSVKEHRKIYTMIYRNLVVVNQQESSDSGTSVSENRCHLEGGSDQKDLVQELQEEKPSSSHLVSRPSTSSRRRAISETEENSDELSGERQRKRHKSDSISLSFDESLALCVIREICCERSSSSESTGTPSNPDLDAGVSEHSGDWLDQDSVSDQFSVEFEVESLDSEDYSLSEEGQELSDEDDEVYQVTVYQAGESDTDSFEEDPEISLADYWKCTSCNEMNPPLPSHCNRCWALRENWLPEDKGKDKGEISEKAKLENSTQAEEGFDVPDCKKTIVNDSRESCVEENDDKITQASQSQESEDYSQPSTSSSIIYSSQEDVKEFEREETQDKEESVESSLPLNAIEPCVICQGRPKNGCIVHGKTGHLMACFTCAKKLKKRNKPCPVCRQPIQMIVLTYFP

migration of DES-hERα-LBD complex in presence of peptide (hERα-LBD): retarded
mobility of OHT-hERα-LBD complex on peptide addition (hERα-LBD): no effect
Molecule: 686-KHKILHRLLQDSS-698 (not fully specified; printed as 686-KHKILHRLLQDSS-698; listed as Homo sapiens) [GRIP1 NR-box 2 peptide]

Molecule: ILHRLL (MUTAGEN (15)..(15) Ile --> Ala; listed as Homo sapiens) [peptide consisting of the NR-box 2]
competition with TR LBD interaction with GRIP1 (563-767) (hTRβ LBD [1]): does not sufficiently compete

competition with TR LBD interaction with GRIP1 (563-767) (hTRβ LBD [1]): increased affinity
Molecule: KENALLRYLLDKDDTKD

competition with TR LBD interaction with GRIP1 (563-767) (hTRβ LBD [1]): does not compete
Molecule: LLRYLL (listed as Homo sapiens) [minimal motif of NR-box 3]

binding of GR to GRIP1 fragment (GR): binds most strongly
loss of TR binding (hTRβ LBD [2]; hydrophobic residues of the NR-box replaced with alanine): about 50%
Molecule: NR-box 3: GST-GRIP1 (563-767) with hydrophobic residues of NR-box 2 replaced with alanine; NR-box 3 functional (ENALLRYLLDKDD)

competition with TR LBD interaction with GRIP1 (563-767) (hTRβ LBD [1]): increased affinity
Molecule: PKKKENALLRYLLDKDDTKD

competition with TR LBD interaction with GRIP1 (563-767) (hTRβ LBD [1]): increased affinity
Molecule: TSLKEKHKILHRLLQDS

competition with TR LBD interaction with GRIP1 (563-767) (hTRβ LBD [1]): binds like a NR-box 2 peptide
Molecule: TSLKEKHKLLRYLLQDSS

binding of GR to GRIP1 fragment (GR): found to bind
binding of TR to GST-GRIP1 (563-767) fragment (hTRβ LBD [2]; NR-box hydrophobic residues replaced with alanine where mutant): strongly binds TR
B1: GRIP1 (563-767): fragment of GRIP1 containing all three NR-boxes, used as GST-fusion (protein)
chain: QNSPVNMNPPPLSKMGSLDSKDCFGLYGEPSEGTTGQAEASCHPEEQKGPNDSSMPQAASGDRAEGHSRLHDSKGQTKLLQLLTTKSDQMEPSPLPSSLSDTNKDSTGSLPGPGSTHGTSLKEKHKILHRLLQDSSSPVDLAKLTAEATGKELSQESSSTAPGSEVTVKQEPASPKKKENALLRYLLDKDDTKDIGLPEITPKLEHHHHHH
modifications: left off: a dimerising Fc or GST
notes: fragment of GRIP1 containing all three NR-boxes, used as GST-fusion
affinity of GR for GRIP1 (563-767) relative to a comparable amount of TR (GR): about one-fifth

residual GRIP1 binding (hERα V376R mutant): 10%
interaction with TAFII31 (TAFII31): no interaction was detected
interaction with MDM2 (MDM2): no interaction was detected
B2: GRIP1: mouse p160 coactivator protein (protein)
chain: QNSPVNMNPPPLSKMGSLDSKDCFGLYGEPSEGTTGQAEASCHPEEQKGPNDSSMPQAASGDRAEGHSRLHDSKGQTKLLQLLTTKSDQMEPSPLPSSLSDTNKDSTGSLPGPGSTHGTSLKEKHKILHRLLQDSSSPVDLAKLTAEATGKELSQESSSTAPGSEVTVKQEPASPKKKENALLRYLLDKDDTKDIGLPEITPKLE

increase of binding to GR on extension of GRIP1 (563-767) to residue 1121 (GR): about 3 fold
increase of binding of GR to GRIP1 (563-1121) in the absence of ligand (GR; GR deletion mutant lacking N-terminal AF-1 versus full length GR, no ligand): about 10 fold
B3: GRIP1 (563-1121): GRIP1 (563-767) extended to residue 1121, GST fragment (protein)
chain: QNSPVNMNPPPLSKMGSLDSKDCFGLYGEPSEGTTGQAEASCHPEEQKGPNDSSMPQAASGDRAEGHSRLHDSKGQTKLLQLLTTKSDQMEPSPLPSSLSDTNKDSTGSLPGPGSTHGTSLKEKHKILHRLLQDSSSPVDLAKLTAEATGKELSQESSSTAPGSEVTVKQEPASPKKKENALLRYLLDKDDTKDIGLPEITPKLERLDSKTDPASNTKLIAMKTVKEEVSFEPSDQPGSELDNLEEILDDLQNSQLPQLFPDTRPGAPTGSVDKQAIINDLMQLTADSSPVPPAGAQKAALRMSQSTFNNPRPGQLGRLLPNQNLPLDITLQSPTGAGPFPPIRNSSPYSVIPQPGMMGNQGMLGSQGNLGNNSTGMIGSSTSRPSMPSGEWAPQSPAVRVTCAATTGAMNRPVQGGMIRNPTASIPMRANSQPGQRQMLQSQVMNIGPSELEMNMGGPQYNQQQAPPNQTAPWPESILPIDQASFASQNRQPFGSSPDDLLCPHPAAESPSDEGALLDQLYLALRNFDGLEEIDRALGIPELVSQSQAVDAEQFSSQE
modifications: left off: a dimerising Fc or GST
notes: GRIP1 (563-767) extended to residue 1121, GST fragment

Source: patent US6965850B2, “Methods for modulating nuclear receptor coactivator binding” (The Regents of the University of California, priority 1998, dated 2005)
